# Data published in IntAct's records for PubMed 20168298.
# B1: Polycystin-2 (Homo sapiens), Q13563 (parent)
# chain: MVNSSRVQPQQPGDAKRPPAPRAPDPGRLMAGCAAVGASLAAPGGLCEQRGLEIEMQRIRQAAARDPPAGAAASPSPPLSSCSRQAWSRDNPGFEAEEEEEEVEGEEGGMVVEMDVEWRPGSRRSAASSAVSSVGARSRGLGGYHGAGHPSGRRRRREDQGPPCPSPVGGGDPLHRHLPLEGQPPRVAWAERLVRGLRGLWGTRLMEESSTNREKYLKSVLRELVTYLLFLIVLCILTYGMMSSNVYYYTRMMSQLFLDTPVSKTEKTNFKTLSSMEDFWKFTEGSLLDGLYWKMQPSNQTEADNRSFIFYENLLLGVPRIRQLRVRNGSCSIPQDLRDEIKECYDVYSVSSEDRAPFGPRNGTAWIYTSEKDLNGSSHWGIIATYSGAGYYLDLSRTREETAAQVASLKKNVWLDRGTRATFIDFSVYNANINLFCVVRLLVEFPATGGVIPSWQFQPLKLIRYVTTFDFFLAACEIIFCFFIFYYVVEEILEIRIHKLHYFRSFWNCLDVVIVVLSVVAIGINIYRTSNVEVLLQFLEDQNTFPNFEHLAYWQIQFNNIAAVTVFFVWIKLFKFINFNRTMSQLSTTMSRCAKDLFGFAIMFFIIFLAYAQLAYLVFGTQVDDFSTFQECIFTQFRIILGDINFAEIEEANRVLGPIYFTTFVFFMFFILLNMFLAIINDTYSEVKSDLAQQKAEMELSDLIRKGYHKALVKLKLKKNTVDDISESLRQGGGKLNFDELRQDLKGKGHTDAEIEAIFTKYDQDGDQELTEHEHQQMRDDLEKEREDLDLDHSSLPRPMSSRSFPRSLDDSEEDDDEDSGHSSRRRGSISSGVSYEEFQVLVRRVDRMEHSIGSIVSKIDAVIVKLEIMERAKLKRREVLGRLLDGVAEDERLGRDSEIHREQMERLVREELERWESDDAASQISHGLGTPVGLNGQPRPRSSRPSSSQSTEGMEGAGGNGSSNVHV
# Variants of: B1
# Conditions: with pkd1_human PKD1, P98161
# Sequence of pkd1_human PKD1, P98161 (P98161 whole entry, looked up): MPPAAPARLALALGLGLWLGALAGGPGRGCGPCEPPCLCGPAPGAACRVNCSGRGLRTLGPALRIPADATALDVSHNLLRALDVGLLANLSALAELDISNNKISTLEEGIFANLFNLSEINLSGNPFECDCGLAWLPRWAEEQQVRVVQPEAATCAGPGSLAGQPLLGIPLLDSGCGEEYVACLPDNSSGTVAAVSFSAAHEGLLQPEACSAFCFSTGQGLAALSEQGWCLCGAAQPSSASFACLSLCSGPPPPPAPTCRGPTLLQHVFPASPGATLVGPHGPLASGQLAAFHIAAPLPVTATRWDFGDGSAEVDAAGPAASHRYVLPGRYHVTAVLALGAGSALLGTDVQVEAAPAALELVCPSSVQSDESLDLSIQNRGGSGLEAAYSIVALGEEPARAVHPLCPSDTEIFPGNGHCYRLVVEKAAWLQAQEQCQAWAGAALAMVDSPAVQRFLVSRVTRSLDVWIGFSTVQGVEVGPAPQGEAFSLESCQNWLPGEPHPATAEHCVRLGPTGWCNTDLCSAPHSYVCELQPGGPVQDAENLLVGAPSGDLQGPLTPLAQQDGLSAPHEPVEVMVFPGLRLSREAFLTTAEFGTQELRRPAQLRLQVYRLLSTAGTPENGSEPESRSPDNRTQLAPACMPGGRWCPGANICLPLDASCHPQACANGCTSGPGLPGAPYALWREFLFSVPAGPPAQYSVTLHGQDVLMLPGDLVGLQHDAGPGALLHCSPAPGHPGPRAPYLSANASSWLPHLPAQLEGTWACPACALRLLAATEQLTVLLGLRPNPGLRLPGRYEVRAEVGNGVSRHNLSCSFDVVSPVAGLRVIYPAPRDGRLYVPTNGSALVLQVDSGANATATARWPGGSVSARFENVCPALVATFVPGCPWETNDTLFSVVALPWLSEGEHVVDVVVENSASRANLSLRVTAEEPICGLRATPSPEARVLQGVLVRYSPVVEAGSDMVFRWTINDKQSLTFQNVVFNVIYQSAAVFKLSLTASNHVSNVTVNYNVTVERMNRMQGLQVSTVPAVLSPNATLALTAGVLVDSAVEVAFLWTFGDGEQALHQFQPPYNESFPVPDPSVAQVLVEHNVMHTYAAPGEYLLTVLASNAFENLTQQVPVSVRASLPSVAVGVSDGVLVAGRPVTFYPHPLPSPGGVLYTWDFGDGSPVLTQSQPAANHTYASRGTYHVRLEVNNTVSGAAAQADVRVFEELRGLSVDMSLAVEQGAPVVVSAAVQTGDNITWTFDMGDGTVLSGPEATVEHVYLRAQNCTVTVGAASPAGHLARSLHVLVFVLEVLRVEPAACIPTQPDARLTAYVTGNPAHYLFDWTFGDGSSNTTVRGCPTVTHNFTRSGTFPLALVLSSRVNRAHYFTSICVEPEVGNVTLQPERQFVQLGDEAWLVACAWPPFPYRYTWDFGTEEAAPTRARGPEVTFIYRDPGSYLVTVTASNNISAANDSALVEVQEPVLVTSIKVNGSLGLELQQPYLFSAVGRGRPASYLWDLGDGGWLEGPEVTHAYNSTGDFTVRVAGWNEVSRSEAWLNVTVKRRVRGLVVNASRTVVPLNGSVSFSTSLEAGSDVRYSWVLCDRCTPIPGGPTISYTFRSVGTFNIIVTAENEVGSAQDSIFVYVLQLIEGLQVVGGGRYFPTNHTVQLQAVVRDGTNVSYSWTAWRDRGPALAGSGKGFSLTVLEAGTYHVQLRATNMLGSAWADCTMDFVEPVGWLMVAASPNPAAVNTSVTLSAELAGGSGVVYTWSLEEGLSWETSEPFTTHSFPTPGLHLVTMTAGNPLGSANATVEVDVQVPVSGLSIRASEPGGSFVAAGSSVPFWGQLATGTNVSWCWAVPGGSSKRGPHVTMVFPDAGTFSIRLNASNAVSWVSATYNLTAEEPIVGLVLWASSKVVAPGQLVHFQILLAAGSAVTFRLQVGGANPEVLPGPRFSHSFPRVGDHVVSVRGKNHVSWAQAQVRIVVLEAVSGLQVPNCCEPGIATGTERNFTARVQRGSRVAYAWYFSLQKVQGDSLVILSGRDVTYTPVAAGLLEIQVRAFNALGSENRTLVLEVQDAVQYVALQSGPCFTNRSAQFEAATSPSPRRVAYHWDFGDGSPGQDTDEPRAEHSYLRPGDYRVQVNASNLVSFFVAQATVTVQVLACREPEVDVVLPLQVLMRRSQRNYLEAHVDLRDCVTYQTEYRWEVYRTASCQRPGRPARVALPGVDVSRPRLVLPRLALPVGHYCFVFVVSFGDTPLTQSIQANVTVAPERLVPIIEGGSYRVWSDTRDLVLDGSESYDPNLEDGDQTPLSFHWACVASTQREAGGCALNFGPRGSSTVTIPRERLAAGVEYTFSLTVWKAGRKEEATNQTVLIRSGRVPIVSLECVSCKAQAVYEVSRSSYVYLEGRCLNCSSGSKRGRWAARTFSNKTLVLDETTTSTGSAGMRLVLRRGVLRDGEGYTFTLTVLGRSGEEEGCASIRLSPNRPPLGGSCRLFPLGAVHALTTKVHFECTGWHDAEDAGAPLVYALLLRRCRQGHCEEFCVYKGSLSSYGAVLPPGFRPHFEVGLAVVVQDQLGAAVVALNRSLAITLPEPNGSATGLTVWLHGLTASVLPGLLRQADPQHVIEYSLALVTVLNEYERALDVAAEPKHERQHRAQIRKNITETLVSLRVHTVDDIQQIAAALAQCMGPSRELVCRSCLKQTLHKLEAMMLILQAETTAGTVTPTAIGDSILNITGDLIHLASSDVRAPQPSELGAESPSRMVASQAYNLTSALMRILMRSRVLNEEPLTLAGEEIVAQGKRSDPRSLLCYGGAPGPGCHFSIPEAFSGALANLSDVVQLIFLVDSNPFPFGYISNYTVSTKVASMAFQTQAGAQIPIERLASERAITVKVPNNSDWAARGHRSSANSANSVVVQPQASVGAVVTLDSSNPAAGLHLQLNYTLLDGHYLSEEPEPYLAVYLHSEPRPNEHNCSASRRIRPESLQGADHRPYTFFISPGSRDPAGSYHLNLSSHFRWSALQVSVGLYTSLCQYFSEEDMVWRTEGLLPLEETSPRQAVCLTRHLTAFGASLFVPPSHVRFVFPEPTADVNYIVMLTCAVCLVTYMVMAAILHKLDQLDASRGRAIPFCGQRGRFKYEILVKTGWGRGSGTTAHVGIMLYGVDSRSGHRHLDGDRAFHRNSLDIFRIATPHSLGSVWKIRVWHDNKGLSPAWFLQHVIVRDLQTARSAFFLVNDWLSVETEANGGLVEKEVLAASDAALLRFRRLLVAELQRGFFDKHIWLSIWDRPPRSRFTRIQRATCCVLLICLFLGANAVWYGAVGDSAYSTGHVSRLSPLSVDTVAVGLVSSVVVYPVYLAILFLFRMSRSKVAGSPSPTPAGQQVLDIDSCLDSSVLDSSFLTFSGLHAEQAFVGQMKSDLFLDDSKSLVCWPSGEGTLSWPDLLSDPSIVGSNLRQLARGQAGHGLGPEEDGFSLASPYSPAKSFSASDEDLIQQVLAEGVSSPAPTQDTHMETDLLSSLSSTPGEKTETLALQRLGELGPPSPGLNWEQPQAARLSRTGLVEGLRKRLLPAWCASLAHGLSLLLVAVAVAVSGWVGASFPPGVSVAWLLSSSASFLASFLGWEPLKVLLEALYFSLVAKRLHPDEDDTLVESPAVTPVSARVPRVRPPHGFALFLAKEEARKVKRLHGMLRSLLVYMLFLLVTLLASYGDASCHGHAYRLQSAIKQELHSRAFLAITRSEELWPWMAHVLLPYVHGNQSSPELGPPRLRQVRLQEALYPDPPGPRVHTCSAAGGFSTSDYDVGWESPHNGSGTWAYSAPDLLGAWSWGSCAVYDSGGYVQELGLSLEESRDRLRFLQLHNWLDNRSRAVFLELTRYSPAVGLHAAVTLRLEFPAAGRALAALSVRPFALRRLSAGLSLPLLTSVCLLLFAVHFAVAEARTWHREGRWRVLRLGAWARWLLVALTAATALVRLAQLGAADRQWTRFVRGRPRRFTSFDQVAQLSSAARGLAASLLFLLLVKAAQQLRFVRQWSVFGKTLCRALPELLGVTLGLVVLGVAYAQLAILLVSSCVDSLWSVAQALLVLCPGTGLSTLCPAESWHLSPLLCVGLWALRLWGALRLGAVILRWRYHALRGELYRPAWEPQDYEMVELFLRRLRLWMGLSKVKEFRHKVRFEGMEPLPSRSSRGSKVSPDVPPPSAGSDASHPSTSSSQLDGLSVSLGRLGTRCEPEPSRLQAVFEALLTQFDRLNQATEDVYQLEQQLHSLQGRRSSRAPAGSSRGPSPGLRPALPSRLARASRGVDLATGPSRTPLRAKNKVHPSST
row,Variant,effect of a mutation on the interaction
1,I853A,disrupting interaction
2,V846A,disrupting interaction

# Results, then the variant that gave them:
row,effect of a mutation on the interaction,Variant
1,disrupting interaction,L867A
2,disrupting interaction,I860A
